These are literature values, as cited in publication PMC2910557.

Read-outs that look alike come from different tables or passages of the source.

The target of data set [1] is pHtrII (Natronomonas pharaonis) (UniProt P42259).
The target is the same in data set [2]. The source holds these as a separate data set.

UniProt P42259, sequence (P42259 whole entry): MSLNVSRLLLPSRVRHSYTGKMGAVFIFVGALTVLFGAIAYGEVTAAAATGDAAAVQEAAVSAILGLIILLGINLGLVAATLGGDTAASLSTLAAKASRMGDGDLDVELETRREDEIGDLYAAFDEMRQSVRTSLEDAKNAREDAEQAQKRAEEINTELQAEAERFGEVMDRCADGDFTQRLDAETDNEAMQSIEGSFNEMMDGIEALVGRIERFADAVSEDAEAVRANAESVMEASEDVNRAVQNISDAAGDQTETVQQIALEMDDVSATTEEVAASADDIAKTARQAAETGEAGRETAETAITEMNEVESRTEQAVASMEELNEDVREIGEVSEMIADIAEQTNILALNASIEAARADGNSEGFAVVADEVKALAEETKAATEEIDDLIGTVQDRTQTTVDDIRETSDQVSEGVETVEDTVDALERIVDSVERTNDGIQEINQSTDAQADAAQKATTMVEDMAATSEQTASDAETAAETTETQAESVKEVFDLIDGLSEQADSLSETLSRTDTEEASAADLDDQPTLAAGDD

As for “ppR (sensory rhodopsin II) (from UniProt P42196)”, in data set [1], the Kd (as a rule, the concentration at which binding is half-saturated) was 160 nM.

For “ppR M intermediate (ppRM) (from UniProt P42196)”, the Kd in data set [2] was 5000 nM.
